Results reported in patent publication US20110159050A1, “AMPHIPHILIC PROTEINS AS MORPHOLOGY MODIFIERS” (BASF SE, priority 2008, published 2011).
“Also recorded” adds a separate entry of the source.

B1: PO: class I hydrophobin from Pleurotus ostreatus, produced recombinantly in E. coli (protein, UniProt O60048 22-113, looked up)
Class I hydrophobin POH3: IPRTNPPAPTCTTGSLQCCNSVQAASNPVVGLLAGLLGIVLGPITGQVGLTCSPITVIGVGGTSCSAQTVCCNGNSFNGLIVVGCSPVNISL
modifications: recombinant in E. coli
B2: SC: class I hydrophobin from Schizophyllum commune, produced recombinantly in E. coli (protein, UniProt P16933 25-136, looked up)
Class I hydrophobin SC3: GGHPGTTTPPVTTTVTVTTPPSTTTIAAGGTCTTGSLSCCNQVQSASSSPVTALLGLLGIVLSDLNVLVGISCSPLTVIGVGGSGCSAQTVCCENTQFNGLINIGCTPINIL
modifications: recombinant in E. coli

Legend:
[1] = Crystallisation of benzamide in presence of SC, PO, TT or TR (cooling, visual assessment); format: physicochemical; conditions: 100 ppm protein
Procedure: (§1) 15 g of benzamide (Fluke) are dissolved in 150 mL pure water. Aliquots of 10 mL of the resulting solution are transferred into 15 mL sealable polypropylene tubes that have been pre-heated to 95° C. in order to prevent the onset of crystallization. To assure uniform temperature, the tubes are shaken for 15-30 min at 95° and 750 rpm on a thermomixer (Eppendorf Thermomixer Comfort), then 100 μL of the hydrophobin solution (prepared according to the method given in example 1) is added (the tubes are still shaken to allow homogeneous mixing and tempering). After 1-2 min the tubes are withdrawn from the thermomixer to allow cooling without shaking at RT. Control samples are treated in the same way except that 100 μL of pure water are added instead of the hydrophobin solution, or no API is present.
(§2) The results of a visual assessment after the hydrophobin injection (final concentration in the sample is 100 ppm) are compiled in the following table.

[2] = Atorvastatin crystallisation by evaporation on protein-coated object slides; format: physicochemical; conditions: object slides coated with protein (100 μg protein/mL over night), vs non-coated control
Procedure: b) In a further set of tests, object slides are coated with protein by incubation in a solution as prepared according to the method given in example 1 (100 μg protein/mL) over night. The object slides then are washed and air dried before 50 μL of Atorvastatin solution as described above is coated on the slide.

[3] = Crystallisation and redispersion of Venlafaxine (IPA, visual assessment); format: physicochemical; conditions: for re-suspension on pouring after vigorous shaking (Vortex) for 10-15 sec: Venlafaxine crystallized over night; for (RT) dispersability: Venlafaxine crystals
Procedure: 15 g of Venlafaxine (Ciba) are dissolved in 150 mL IPA. Aliquots of 10 mL of the resulting solution are transferred into 15 mL sealable polypropylene tubes that have been pre-heated to 95° C. To assure uniform temperature, the tubes are agitated for 15-30 min at 80° and 750 rpm on a thermomixer (Eppendorf Thermomixer Comfort), then 100 μL of the protein solution (prepared according to the method given in example 1) is added. Control samples are treated in the same way except that 100 μL of pure water are added instead of the hydrophobin solution, or no API is present.
as §2
The mother liquor crystallizes completely over night, with crystals adhering together covered by the solvent.

[4] = Crystallisation of paracetamol in presence of hydrophobins (cooling from 95° C. to RT, visual assessment); format: physicochemical; conditions: 100 ppm protein; for visual assessment after 0 min (protein without API; no clouding = no denaturation): no API present, 95° C.; for visual assessment after 0 min / visual assessment <5 min: paracetamol present; for visual assessment after 0 min: after injection at 95° C.; for visual assessment <5 min: cooling at RT
Procedure: The hydrophobin solution is prepared by solubilization of 10 mg of lyophilized powder (protein content at least 60-80%) in 1 mL pure water. Insoluble residues are removed by centrifugation.
as §1, with “API (Paracetamol, Sigma)” for “benzamide (Fluke)”, “ensure” for “assure”, “solution” for “solution (prepared according to the method given in example 1)”, “under continued” for “(the tubes are still shaken to allow homogeneous”, “at 95° C.; final protein concentration in the sample is 100 ppm.” for “and tempering).”

[5] = Crystallisation of Atorvastatin by evaporation in dishes, microscopic inspection; format: physicochemical; conditions: Atorvastatin in water/acetonitrile, 100 ppm hydrophobin, vs hydrophobin-free control
Procedure: a) 15 g of Atorvastatin (Ciba) are dissolved in 75 mL pure water and 75 mL acetonitrile by heating to 50° C. and stirring for 2 h. The resulting solution is filtered (0.45 μm). Aliquots of 10 mL are transferred into 15 mL sealable polypropylene tubes that have been pre-heated to 50° C. in order to prevent the onset of crystallization. To assure uniform temperature, the tubes are shaken for 15-30 min at 50° and 750 rpm on a thermomixer (Eppendorf Thermomixer Comfort), then 100 μL of the protein solution (prepared according to the method given in example 1) is added (final concentration: 100 ppm). Control samples are treated in the same way except that 100 μL of pure water are added instead of the hydrophobin solution, or no API is present.
1 mL of each sample is poured into dishes (Ø5 cm) in order to allow crystallization by evaporation. The dried crystals (˜20 h later) are microscopically inspected.

[6] = from 72; at 50 microgram/ml; cited from earlier work
[7] = Venlafaxine in IPA, 100 ppm protein

| Molecule | crystal size 15 min [1] | crystal size <5 min [1] | crystal size >20 h [1] | visual assessment <5 min [1] | visual assessment after 0 min [1] | crystal growth by evaporation on coated glass surface [2] | re-suspension on pouring after vigorous shaking (Vortex) for 10-15 sec [3] | (RT) dispersability [3] | visual assessment 120 min [3, 7] | visual assessment after 0 min [3, 7] | visual assessment after 0 min (protein without API; no clouding = no denaturation) [4] | visual assessment after 0 min [4] | visual assessment <5 min [4] | crystal size 15 min ([4]; paracetamol) | crystal size >20 h ([4]; paracetamol) | crystal growth after crystallization by evaporation [5] | also measured |
| --- | --- | --- | --- | --- | --- | --- | --- | --- | --- | --- | --- | --- | --- | --- | --- | --- | --- |
| B1 | crystals 0.2-0.5 mm | 0.2-0.5 mm | crystals 0.5-1 mm | few crystals | clouding | more regular crystal growth; also recorded: more evenly crystal growth | predominantly the remaining mother liquor is poured out | poor | crystals | clouding | clear | clouding | few crystals | cryst. 0.2-0.5 mm | crystals 0.5-1 mm | more evenly crystal growth | crystal size 20 min [3, 7]: crystals 0.2 mm; crystal size <5 min [3, 7]: crystals 0.1 mm; crystal size <5 min ([4]; paracetamol): 0.2-0.5 mm |
| B2 | crystals 0.1-0.2 mm | 0.1-0.2 mm | crystals 0.5-1 mm | few crystals | clouding | more regular crystal growth; also recorded: more evenly crystal growth | complete emptying of the tubes | Best dispersability and best | crystals | streaks | clear | streaks | clear | cryst. 0.1-0.2 mm | crystals 0.5 mm | more evenly crystal growth | visual assessment 20 min [3, 7]: clear; visual assessment <5 min [3, 7]: clear; maximal lowering of the water surface tension [6]: 24 mJ m^−2 |
